Experimental data from the DeepSol protein solubility set.

test: soluble on expression in E. coli; label from the status in PepcDB or PDB records

Row | Sequence | soluble on expression in E. coli
1 | NKNFTWTSNFNLTYQRALVDKLPEGKDIQYGDGEMYLHREGESMYTFYLPEWKGVNPETGLGEFWLDPEDHSKGVVNDYSEAGKGIVGKALPDVIGGFSNTFTYKDFDLSFLITYQFGGDMFDYPGYFSHHDGVRIGSMNLSEDVAGNYWKNPGDKVDNPMPIYANPYRWDRFSSRTIKSTDNIRLREMTVGYTLPVLKKHISNFRIYFRANNLAMLWSKTKNIDPDVAINGYRQADTPALRSCVFGINIKL | not soluble
2 | MGSDKIHHHHHHVKEVKPKEDRVVLTKDQEKSLQIFCEWLEAPYSFKPFVMKGFAGSGKTYLSMKLLKKVDQLGLCWTVVAPTHKAVGVLREGLKNESIQPTWFPSTIHRLLRLKLKRQADIEICEKTDQTESSLENLGLVLIDEASMIDSKLLEITLECARCNSTRLVFVGDPAQLPPVGESTSSVFLMKRAVNTELREVVRHQGPVLKLAKVIRDGQIPCMQPPLVKVINSKKGNVGILDRTSWLERAKLALRLSSLEDDHDRARILCYTNRIVDNLVPHARRAIHGEMADQYQVLPGEVLISRKAVMVNASLNVDELGEEPDILISSNREMVVEDVIPNSFDLASLGIHQDFENPLPVIETQVAKVNCDQKEFSLRLMPQIGSKARKDLDLSLNELSNLARERGRKNSASTWKLFFFIRDSFASLGPASVLTIHRSQGSTFGEVFITSDAFWPKDLEFRRRLVYVAVSRASKGVWIVGDNKSKMNQALLEKLLMD | not soluble
3 | TWVVSPAEKAKYDEIFLKTDKDMDGFVSGLEVREIFLKTGLPSTLLAHIWSLCDTKDCGKLSKDQFALAFHLISQKLIKGIDPPHVLTPEMIPPS | soluble
4 | MGSDKIHHHHHHMLKMPSLKAVKSFVAAAKYQSFTRAAEALCVTQAAISRQIRELEAYMGVELFKRVGRAVELTEAGSAFFDAAQLSFVNISQAAKRVGAYKAGKSEVTLCCSAAFAALWLSPKLPGFFNDNQDIDLNLISTQNFLSMEPGVTPDIFITKFSSVHSGYRSYPLFHDVIFPVCTPRYRDEHPELATLEGLRDSALLNLSPYGRAQVAEHIDWGVWLAFHDTDIEKRTHNRPHVFSANDYNVVINMTLANQGVALGWSHLVAESLEKGALVRPIQKEVVHKDSQHYLAFKVDRESDRGCCRLRDWLLSHFA | not soluble
5 | GSLSRLSYKSNNNSFVLGIGISVPGEPISQQSLKDSISNDFSDKAETNEKVKRIFEQSQIKTRHLVRDYTKPENSIKFRHLETITDVNNQFKKVVPDLAQQACLRALKDWGGDKGDITHIVSVTSTGIIIPDVNFKLIDLLGLNKDVERVSLNLMGCLAGLSSLRTAASLAKASPRNRILVVCTEVCSLHFSNTDGGDQMVASSIFADGSAAYIIGCNPRIEETPLYEVMCSINRSFPNTENAMVWDLEKEGWNLGLDASIPIVIGSGIEAFVDTLLDKAKLQTSTAISAKDCEFLIHTGGKSILMNIENSLGIDPKQTKNTWDVYHAYGNMSSASVIFVMDHARKSKSLPTYSISLAFGPGLAFEGCFLKNVV | soluble
6 | MFFNLRKNKKRLGWFNNGEVEAVAKDLGVAPSEVREMEARLAAQDSTFEAPAEDDDRDMAFTAPVYYLEDKQSDVAYSLEEDNWEDYTNNRLANAIATLDERSQHIVQSRWLADEKATLQELADTYQVSAERIRQLEKNAMKKLKDAVGDVL | not soluble
7 | SNAMSTISRDSCPALRAGVRLQHDRARDQWVLLAPERVVELDDIALVVAQRYDGTQSLAQIAQTLAAEFDADASEIETDVIELTTTLHQKRLLRL | soluble
8 | MSLKLYYMPAACSLSPHIVANELELDIEFVRVNFKDHKTEGGQDYYDINPNGYIPALDVGNGAMLFEGPAIVQYMADLKPQSGLAPANGTFERYKLQEMLSFLSTEIHKGFIPLLYAKQAGAYLETATPKLEKRYAWIDNLLASQRFLMGENFTVADAYLFALTSWGQASWLKSYYGADIHFDDLLNLRGWYERVKERDAVKQSILEEGLSLSEGHHHHHH | soluble
9 | KGSTFIKAQDKYEVNILYLISHALVETGNGQSDLSKGIKEGDHHYYNFFGIGAFDEDAVKTGKSFAKQKKWTTPEKAIMGGAWFVRYHYFKNNQLSLYQMRWNPQNPGQHQYASDIQWANNIADLMEKYYDKYGIKKDHIRKKYYK | not soluble
10 | MGCLSYMVLSGDEALVVDPLRFIDVYEQVAQQEGVTITHIVDSHLHADHLSGGKALAERTGAAYYLMKSEGAVFDFEPLEQHETIDFENVHLEVLAVKTPGHTPGSVSFFVNGKWLFSGDTIFVGGLGRPDLGGKVAEWAEDLYHTVYEKVAAMADDVIVLPAHYANLDEEINAEGYVGDTLGRIRARNEMMQNKAKDEFIDLVIQGLEHHHHHH | not soluble
11 | MSRVGVMVLGPAGAGKSTFCNSIISHMQTVGRRAHIVNLDPAAEATKYEFTIDIRDLISLDDVMEEMDLGPNGALIYCFEYLLKNLDWLDEEIGDFNDEYLIFDCPGQIELYTHIPVLPNIVRHLTQQLNFNLCATYLLEAPFVIDSSKFFSGALSAMSAMILLELPHINVLSKLDLIKGDINKKKLKRFLNPDAMLLMETEGMNQASNPKFLRLNQCIANLVDDFGMVQFLPLESNNPDSIETILSYVDDITQWAEGQEQKEPNDQIDVEE | soluble
12 | MPRILFTVPPFPVFIAAGEGVFKKGETHVKRVFSVFDLIYVKQGTLYITENETSFSVEGGEYILLSPGLEHYGTKGSDEATSYYWLHFDEHRYEFTAKGGSNWSELQQEKGSFEELARYGLALPRKGKVQRPQFMAQQFEKLIDYSAENSDLPLRKQILFEELMLHLQKEAFQIPSAKERVAWEAARYLQEHYKEKTTIKDLSLALHYHQDYVSRCMQQVLGVTPAQYTNRVRMTEAKRLLSSTNDKMGVIAETVGMEDPTYFSKLFKQIEGISPIEYRKIVSRKVQ | not soluble
13 | MIPRVRAPELPQNYPWLNTEQPLSIKQLNGRVVILDFWTYCCINCLHVLPDLKYLEQKYKDSLTVIGVHSAKFDNEQETENIRQAILRYDIEHPVLVDKDFRVWQEYAVRAWPTLMVIDPKGYVIGYVSGEGNRDKLDQLITQVIQEHQGAINFQQLSLTLEKQRQPLITPLAFPGKVLATPSGLFVADSGHHRIVVSDFNGEILHLIGNGKSGLTDGNFQEAQFSAPQGMAFDMENQILYLADTENHALRRVDINQQTVETIAGTGEQSRNIQPHGGVGLETALNSPWDLVNIENSLYIAMAGVHQIWQMDLASGVIKTYAGTGVEACLDASLTESAFAQPSGITNNEQELYIADSEISSIRGVGLVEPQEVRTVCGSGGLFGFGDVDGQGEDVRLQHCLGVEYFQNYLWVADTYNHKIKSVSPHTGNCQTVLGDGLAGLQNGQGKNTRFFEPSGLSAIDSYLYISDTNNHVIRRVDLRTLEVTTMQFNGLCAPDVCIPNNFLEHHHHHH | not soluble
14 | MTNLTFYAKIGISEEEHDSFVKEHQQISVLQGSDWAKIKNQWQNERIGIYKEEKQVASLSLLIKLLPLGRSIIYIPRGPVMDYLDRDLVAFTMKTLKDYGKTKKALFIKYDPAILLKQYALGQEEEEKPLALAAIKNLQEAGVHWTGLTMEIADSIQPRFQANIYTQENLEMQFPKHTRRLIKDAKQRGVKTYRVSQSELHKFSKIVSLTEKRKNISLRNEAYFQKLMTTYGDKAYLHLAKVNIPQKLDQYRQQLILINQDITRTQAHQKKRLKKLEDQKASLERYITEFEGFTDQYPEEVVVAGILSISYGNVMEMLYAGMNDDFKKFYPQYLLYPNVFQDAYQDGIIWANMGGVEGSLDDGLTKFKANFAPTIEEFIGEFNLPVSPLYHIANTMYKIRKQLKNKH | not soluble
15 | KTKNEPKVILELAKESDLPEFQKKLQEAFAIAVIETFGDCEDGPIPSDNDVQESFNAPGAVVYHILQDGKNVGGAVVRINSQTNHNSLDLFYVSPEYHSQGIGLSAWKAIEAQYPDTVLWETVTPYFEKRNINFYVNKCGFHIVEFYNEHHSNPHMHRNGR | soluble
16 | MNQAWQSQLPLSHIKNIVPVSGGDVNDAFRIETDQEDYFLLVQRKRKSTFFDAEIAGLNLFEKVGITAPRVIDSGEIEDDAYLLLTYLDEGVSGSQEALGQLVARMHSEQQADNQFGFDLPYEGGDISFDNSWTNSWITLFVEKRLDKLKDRLVQQGLWGDADVTQYQAVRRVIVNELESHNSKPSLLHGDLWGGNYMFLTDGSPALFDPAPLYGDREFDIGITSVFGGFTQAFYDAYHKHYPLSEGADVRLEFYRLYLLMVHLVKFGEMYAGSVDRSMQKILNQLEHHHHHH | soluble
17 | HHHHHHMAGMAMDLGGYLTRIGLDGRPRPDLGTLHAIVAAHNRSIPFENLDPLLGIPVADLSAEALFAKLVDRRRGGYCYEHNGLLGYVLEELGFEVERLSGRVVWMRADDAPLPAQTHNVLSVAVPGADGRYLVDVGFGGQTLTSPIRLEAGPVQQTRHEPYRLTRHGDDHTLAAQVRGEWQPLYTFTTEPRPRIDLEVGSWYVSTHPGSHFVTGLTVAVVTDDARYNLRGRNLAVHRSGATEHIRFDSAAQVLDAIVNRFGIDLGDLAGRDVQARVAEVLDT | soluble
18 | MAHHHHHHMVLIKAKNNEGKTVGEGKFSPFCFVLYGDIQYGMIRANHGWYEERKLLKEAITKTNKIKPSFVVAMGDLANKFPIDELQNEQYKDLKTDFEQLDKSIDLYVFCGNHDVGNEPTHETISNFEHFWGDSYYSYIYNNCGFIILNSAVFFNDTQVQDLKEKQFLWLDETLKKMVSKNVKHKFLFLHHALMYDHIEEDENIGLIYGDKFRNYSEKNKFHIKKETRMVIYDMLKKYKVSHVFCAHLHANREKNIDANIKQITISAVGMQAASDQSGLMIVQVAEEGVDYKYYPFEFVPSFVKV | not soluble
19 | MAHHHHHHMAVAYVFDGAVLKQMSLEAGHPKFTVLDTPLCSDSAVTCFGKDEFYFINGSVPNVLRHFGGRSGCTEHFLPGPAHCLLVHRQKVYCCGVDCLYVFDPLGEEVETIELGQQIKELTAADHGFVFVNDRHELYAFHFTRGVKIVGTKGPVSKLLGHHNRYAVVLLDNGDVISVNEEAEVRENLFPLKIKERFVALDTGMTLALREDELALHMNGTWLCLDGFKGRELQFLGVPLTPAEDACTICFCDFEDGDGVRLDCGHPFHRDCLAEFSTHAKSFVEKGEHIVFTYAVCPSGCGTHIRHAAAPLSAYMNDLYRAVTKDAEGRLREMENKTLEDLYYYVCCRCEKPYYGGNRWCSRTISGEPCKKPSELICSDCNDDFLCPSHNHDFVLYKCRYCCNPATHLSFGNRYMCDACNKKWEGTEPEPMECPGAEKCPLGGAHPTGGSQPLGCMLCTLFDKCDAKHFFPPQ | not soluble
20 | MFQLSVQDIHPGEQAGNKEEAIRQIAAALAQAGNVAGGYVDGMLAREQQTSTFLGNGIAIPHGTTDTRDQVLKTGVQVFQFPQGVTWGEGQVAYVAIGIAASSDEHLGLLRQLTHVLSDDSVAEQLKSATTAEELRALLMGEKQSEQLKLDNETMTLDVIASSLVTLQALNAARLKEAGAVDAAFVAKTINDSPMNLGQGIWLNDSAEGNLRSAVAVSRATQAFDVEGEKAALLVTVAMNDEQPIAVLKRLGDLLLNNKADRLLSADAATLLALLTSDDALTDDVLSAEFVVRNEHGLHARPGTMLVNTIKQFNSEITVTNLDGTGKPANGRSLMKVVALGVKKGHRLRFTAQGEDAEQALKAIGDAIAAGLGEGA | not soluble
21 | MVEDILAPGLRVVFCGINPGLSSAGTGFPFAHPANRFWKVIYQAGFTDRQLKPQEAQHLLDYRCGVTKLVDRPTVQANEVSKQELHAGGRKLIEKIEDYQPQALAILGKQAYEQGFSQRGAQWGKQTLTIGSTQIWVLPNPSGLSRVSLEKLVEAYRELDQALVVRGR | soluble
